Legend:
Maize AHAS = target: T1, Maize AHAS (Zea mays, UniProt Q41769); assay: Enzymatic activity and cofactor dependence of purified maize AHAS expressed from pAC751; assay type: biochemical
T1 construct: residue #2 corresponds to the putative amino terminus of the mature protein, i.e., after removal of a chloroplast targeting peptide; GST (glutathione S-transferase, pGEX-2T) (N, cleaved yes); made in house; host or cells: E. coli (DH5α), pGEX-2T vector pAC751
T1 sequence (Q41769 40-638): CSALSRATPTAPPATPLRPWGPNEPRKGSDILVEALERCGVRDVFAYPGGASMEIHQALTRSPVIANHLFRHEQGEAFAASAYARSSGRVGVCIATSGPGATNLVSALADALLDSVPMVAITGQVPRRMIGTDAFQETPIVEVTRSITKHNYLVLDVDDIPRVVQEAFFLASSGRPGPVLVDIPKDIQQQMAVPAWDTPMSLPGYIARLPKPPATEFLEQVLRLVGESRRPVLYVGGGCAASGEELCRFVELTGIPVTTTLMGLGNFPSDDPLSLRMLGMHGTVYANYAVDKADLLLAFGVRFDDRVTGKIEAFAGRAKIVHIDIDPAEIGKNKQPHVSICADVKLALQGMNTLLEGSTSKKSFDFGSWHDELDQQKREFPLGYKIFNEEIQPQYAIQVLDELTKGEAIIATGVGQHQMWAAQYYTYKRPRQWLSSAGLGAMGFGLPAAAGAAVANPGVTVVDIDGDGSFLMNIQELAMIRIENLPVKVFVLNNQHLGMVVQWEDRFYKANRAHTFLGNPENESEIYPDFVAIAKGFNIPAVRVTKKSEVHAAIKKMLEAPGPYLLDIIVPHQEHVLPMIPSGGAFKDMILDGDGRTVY
Method: E. coli (DH5α) cells transformed with the pGEX-2T vector containing either the maize wild type AHAS gene (vector designation pAC751), the Arabidopsis Ser653Asn mutant, or the Arabidopsis Ile401Phe mutant were grown overnight in LB broth containing 50 μg/mL ampicillin. The overnight culture of E. coli was diluted 1:10 in 1 L LB, 50 μg/mL ampicillin, and 0.1% v/v antifoam A. The culture was incubated at 37° C. with shaking until the OD600 reached approximately 0.8. Isopropylthiogalactose (IPTG) was added to a final concentration of 1 mM and the culture was incubated for 3 more hours.
Cells were harvested by centrifugation at 8,670×g for 10 minutes in a JA-10 rotor and resuspended in 1/100th of the original culture volume in MTPBS (16 mM Na2HPO4, 4 mM NaH2PO4, 150 mM NaCl, pH 7.3). Triton X-100 and lysozyme were added to a final concentration of 1% v/v and 100 μg/mL, respectively. Cells were incubated at 30° C. for 15 minutes cooled to 4° C. on ice, and were lysed by sonication for 10 seconds at level 7 with a Branson Sonifier Cell Disrupter equipped with a microtip probe. The cell free extract was centrifuged at 35,000×g for 10 min. at 4° C. The supernatant was decanted and the centrifugation step was repeated.
Purification of expressed fusion proteins was performed as modified from Smith and Johnson (Gene 67:31-40, 1988). […]

[1] = assay type: physicochemical, Zea mays
Method: The fusion protein was digested overnight at room temperature. Digested samples were dialyzed against MTPBS and passed twice through a glutathione-agarose column equilibrated in MTPBS to remove the released glutathione transferase protein. […] The concentrated sample was loaded onto a 1.5×95 cm Sephacryl S-100 gel filtration column equilibrated in gel filtration buffer (50 mM HEPES, 150 mM NaCl, pH 7.0). Two mL fractions were collected at a flow rate of 0.14 mL/min. Enzyme stability was tested by storage of the enzyme at 4° C. in gel filtration buffer with the addition of 0.02% sodium azide and in the presence or absence of 2 mM thiamine pyrophosphate and 100 μM flavin adenine dinucleotide (FAD).
Maize AHAS expressed and purified from pAC751 as described in Example 3 above is active in the conversion of pyruvate to acetolactate. Full AHAS activity is dependent on the presence of the cofactors FAD and TPP in the assay medium. […] The activity of the purified enzyme with TPP only, or with no cofactors, was less than 1% of the activity detected in the presence of both TPP and FAD. Normally, AHAS present in crude plant extracts is very labile, particularly in the absence of substrate and cofactors.

Arabidopsis AHAS protein [2] = settings: no herbicide; for Specific Activity: b134 expresses specific activity as units/mg pure AHAS, 1 unit = 1 μmole acetolactate produced/hour; for % Catalytic Activity as Compared to Wild Type: relative to wild-type AHAS
Method: (a) specific or catalytic activity for conversion of pyruvate to acetolactate (expressed as units/mg pure AHAS, wherein a unit of activity is defined as 1 μmole acetolactate produced/hour), or for condensation of pyruvate and 2-ketobutyrate to form acetohydroxybutyrate (expressed as units/mg pure AHAS, wherein a unit of activity is defined as 1μ mole acetohydroxybutyrate produced/hr.;
(§1) The enzymatic properties of wild-type and variant AHAS produced in E. coli were measured by a modification of the method of Singh et al. (Anal. Biochem […]:173-179, 1988) as follows:
(§2) A reaction mixture containing 1× AHAS assay buffer (50 mM HEPES pH 7.0, 100 mM pyruvate, 10 mM MgCl2, 1 mM thiamine pyrophosphate (TPP), and 50 μM flavin adenine dinucleotide (FAD)) was obtained either by dilution of enzyme in 2× assay buffer or by addition of concentrated enzyme to 1× AHAS assay buffer. All assays containing imazethapyr and associated controls contained a final concentration of 5% DMSO due to addition of imazethapyr to assay mixtures as a 50% DMSO solution. Assays were performed in a final volume of 250 μL at 37° C. in microtiter plates. After allowing the reaction to proceed for 60 minutes, acetolactate accumulation was measured […] as described by Singh et al., Anal. Biochem 171:173-179, 1988.

Arabidopsis AHAS protein [3] = settings: increasing concentrations of imazethapyr, 5% DMSO; FIGS. 7, 9, 10, 11
Method: as §1, §2

tobacco plants = assay: Spraying of transformed tobacco plants with imazethapyr; assay type: in vivo, Nicotiana tabacum cv. Wisconsin 38; settings: twice the field rate (100 g/ha) of imazethapyr
Method: Leaf disc transformation of Nicotiana tabacum cv. Wisconsin 38 was performed as described by Horsch et al. (Science, 227: 1229-1231, 1985) with slight modifications. Leaf discs were cut from plants grown under sterile conditions and co-cultivated upsidedown in Murashige Skoog media (Sigma Chemical Co., St. Louis, Mo.) for 2-3 days at 25° C. in darkness with Agrobacterium tumefaciens strains containing plasmids pJK002, pJK003, or pJK004. The discs were blotted dry and transferred to regeneration Murashige Skoog medium with B5 vitamins containing 1 mg/L benzyladenine and 0.1 mg/l 1-Napthyl Acetic Acid, 100 mg/L kanamycin, and 500 mg/L cefotaxime (all obtained from Sigma).
Kanamycin-resistant tobacco shoots were transferred to medium containing a 0.25 μM imazethapyr.

B1: Maize AHAS: wild type maize AHAS expressed from pAC751 in E. coli and purified, 65 kD (SEQ ID NO:1) (protein)
chain: GSAASPAMPMAPPATPLRPWGPTDPRKGADILVESLERCGVRDVFAYPGGASMEIHQALTRSPVIANHLFRHEQGEAFAASGYARSSGRVGVCIATSGPGATNLVSALADALLDSVPMVAITGQVPRRMIGTDAFQETPIVEVTRSITKHNYLVLDVDDIPRVVQEAFFLASSGRPGPVLVDIPKDIQQQMAVPVWDKPMSLPGYIARLPKPPATELLEQVLRLVGESRRPVLYVGGGCARSGEELRRFVELTGIPVTTTLMGLGNFPSDDPLSLRMLGMHGTVYANYAVDKADLLLALGVRFDDRVTGKIEAFASRAKIVHVDIDPAEIGKNKQPHVSICADVKLALQGMNALLEGSTSKKSFDFGSWNDELDQQKREFPLGYKYSNEEIQPQYAIQVLDELTKGEAIIGTGVGQHQMWAAQYYTYKRPRQWLSSAGLGAMGFGLPAAAGASVANPGVTVVDIDGDGSFLMNVQELAMIRIENLPVKVFVLNNQHLGMVVQWEDRFYKANRAHTYLGNPENESEIYPDFVTIAKGFNIPAVRVTKKNEVRAAIKKMLETPGPYLLDIIVPHQEHVLPMIPSGGAFKDMILDGDGRTVY
modifications: Zea Mays
AHAS activity when only FAD was added to the assay medium (Maize AHAS; FAD only, no TPP): No activity was detected | activity with TPP only, or with no cofactors, relative to activity in the presence of both TPP and FAD (Maize AHAS; TPP only or no cofactors): less than 1% | degradation products in SDS-PAGE gels after storage [1]: no degradation products were visible | catalytic activity after storage ([1]; one month at 4° C. in 50 mm HEPES pH 7.0, 150 mM NaCl, 0.02% NaN3, presence or absence of FAD and TPP): no lose in catalytic activity

B2: Met124Ile: Arabidopsis AHAS variant (and gene) with Met124Ile mutation, corresponding to maize Met53Ile; vector pJK002 (protein, UniProt P17597 56-670, looked up, variant M124I)
Acetolactate synthase, …: SSSPSSISAVLNTTTNVTTTPSPTKPTKPETFISRFAPDQPRKGADILVEALERQGVETVFAYPGGASIEIHQALTRSSSIRNVLPRHEQGGVFAAEGYARSSGKPGICIATSGPGATNLVSGLADALLDSVPLVAITGQVPRRMIGTDAFQETPIVEVTRSITKHNYLVMDVEDIPRIIEEAFFLATSGRPGPVLVDVPKDIQQQLAIPNWEQAMRLPGYMSRMPKPPEDSHLEQIVRLISESKKPVLYVGGGCLNSSDELGRFVELTGIPVASTLMGLGSYPCDDELSLHMLGMHGTVYANYAVEHSDLLLAFGVRFDDRVTGKLEAFASRAKIVHIDIDSAEIGKNKTPHVSVCGDVKLALQGMNKVLENRAEELKLDFGVWRNELNVQKQKFPLSFKTFGEAIPPQYAIKVLDELTDGKAIISTGVGQHQMWAAQFYNYKKPRQWLSSGGLGAMGFGLPAAIGASVANPDAIVVDIDGDGSFIMNVQELATIRVENLPVKVLLLNNQHLGMVMQWEDRFYKANRAHTFLGDPAQEDEIFPNMLLFAAACGIPAARVTKKADLREAIQTMLDTPGPYLLDVICPHQEHVLPMIPSGGTFNDVITEGDGRIKY
Specific Activity (Arabidopsis AHAS protein [2]): 102 | % Catalytic Activity as Compared to Wild Type (Arabidopsis AHAS protein [2]): 102% | resistance of enzymatic activity to imazethapyr (PURSUIT) (Arabidopsis AHAS protein [3]): significant level of imidazolinone resistance | resistance of transformed tobacco plants to spraying with imazethapyr (tobacco plants): resistant

B3: Met124His: Arabidopsis AHAS variant (and gene) with Met124His mutation, corresponding to maize Met53His; vector pJK003 (protein, UniProt P17597 56-670, looked up, variant M124H)
Acetolactate synthase, …: SSSPSSISAVLNTTTNVTTTPSPTKPTKPETFISRFAPDQPRKGADILVEALERQGVETVFAYPGGASHEIHQALTRSSSIRNVLPRHEQGGVFAAEGYARSSGKPGICIATSGPGATNLVSGLADALLDSVPLVAITGQVPRRMIGTDAFQETPIVEVTRSITKHNYLVMDVEDIPRIIEEAFFLATSGRPGPVLVDVPKDIQQQLAIPNWEQAMRLPGYMSRMPKPPEDSHLEQIVRLISESKKPVLYVGGGCLNSSDELGRFVELTGIPVASTLMGLGSYPCDDELSLHMLGMHGTVYANYAVEHSDLLLAFGVRFDDRVTGKLEAFASRAKIVHIDIDSAEIGKNKTPHVSVCGDVKLALQGMNKVLENRAEELKLDFGVWRNELNVQKQKFPLSFKTFGEAIPPQYAIKVLDELTDGKAIISTGVGQHQMWAAQFYNYKKPRQWLSSGGLGAMGFGLPAAIGASVANPDAIVVDIDGDGSFIMNVQELATIRVENLPVKVLLLNNQHLGMVMQWEDRFYKANRAHTFLGDPAQEDEIFPNMLLFAAACGIPAARVTKKADLREAIQTMLDTPGPYLLDVICPHQEHVLPMIPSGGTFNDVITEGDGRIKY
Specific Activity (Arabidopsis AHAS protein [2]): 42.5 | % Catalytic Activity as Compared to Wild Type (Arabidopsis AHAS protein [2]): 42.6% | resistance of enzymatic activity to imazethapyr (PURSUIT) (Arabidopsis AHAS protein [3]): high degree of resistance

From patent US6576455B1, “Structure-based designed herbicide resistant products” (priority 1995, dated 2003)
